Laboratory results from patent US20230028110A1 (ADAPTATE BIOTHERAPEUTICS, published 2023).
Residue numbers refer to the chain shown, from its start. In names and notes the source's numbering stands. Values belong to the binder of their own block, whether it stands above or below them.

Legend:
[1] = biological target: T1, L1 (DV1-GV4), soluble human Vδ1/Vγ4 γδ TCR heterodimer in leucine zipper format (human); assay: SPR, captured IgG, human DV1-GV4 flown over
T1 construct: Biotinylated in the DELFIA ranking; also called Antigen L1 (TRDV1/TRGV4); human DV1-GV4; not shown: gamma chain: Vγ4 (TRGV4) domain on a TCR constant region, leucine zipper, histidine tag

[2] = biological target: T1, L1 (DV1-GV4), soluble human Vδ1/Vγ4 γδ …; assay: DELFIA ELISA, 0.4 nM human TRDV1 antigen; heat map cell of the clone
[3] = biological target: T2, Cyno DV1/GV77 antigen, recombinant cynomolgus Vδ1 heterodimer (cynomolgus monkey); assay: DELFIA ELISA, cyno antigen; heat map cell of the clone
T2 construct: also called cyno TRDV1; Cyno DV1-77; not shown: delta CDR3/J, TCR constant region, zipper and tag; the whole gamma chain GV77

[4] = biological target: T2, Cyno DV1/GV77 antigen, recombinant …; assay: SPR, captured IgG, cyno DV1-GV77 flown over
[5] = biological target: T2, Cyno DV1/GV77 antigen, recombinant …; assay: SPR (Reichert 4SPR), antibody on Protein A chip, Vδ1 heterodimer at 6.25-100 nM as analyte
[6] = biological target: T1, L1 (DV1-GV4), soluble human Vδ1/Vγ4 γδ …; assay: as above
[7] = biological target: T2, Cyno DV1/GV77 antigen, recombinant …; assay: SPR (Reichert 4SPR), antibody on Protein A chip
[8] = biological target: T1, L1 (DV1-GV4), soluble human Vδ1/Vγ4 γδ …; assay: SPR (Reichert 4SPR), antibody on Protein A chip
[9] = biological target: T3, Vδ1 chain of the γδ TCR on human Vδ1 γδ T cells (human); assay: flow cytometry on Vδ1 γδ T-cells, anti-human IgG secondary antibody, % cells bound IgG
T3 construct: whole, on cells; also called cell surface Vδ1 TCR; Vδ1-positive γδ T cells
Method: (§1) After washing, cells were incubated for a further 15 minutes with anti-human IgG secondary antibodies before washing and fixing. The amount of antibody bound to each cell type was determined by flow cytometry.

Recombinant human PD-1 = biological target: T4, Recombinant human PD-1 (human, UniProt Q15116 25-167, limits assumed); assay: SPR (Reichert 4SPR), antibody on Protein A chip, antigen flown over; column head prints TIGIT
T4 construct: also called programmed cell death protein 1
Method: (§2) Recombinant human Vδ1 heterodimer or human PD-1 was flown over the cell at a top concentration of 100 nM.

[10] = biological target: T1, L1 (DV1-GV4), soluble human Vδ1/Vγ4 γδ …; assay: SPR (Reichert 4SPR), antibody on Protein A chip, antigen flown over
Method: as §2

[11] = biological target: PD-1 on PD-1+ NFAT Jurkat cells (Promega, JA2191) (UniProt Q15116 25-288, limits assumed); assay: cell-based or functional assay
[12] = biological target: T5, OX40 on activated CD4 T-cells; assay: flow cytometry on anti-CD3/anti-CD28-activated CD4 T-cells, anti-human IgG secondary antibody, % cells bound IgG
T5 construct: also called OX40+ CD4 T-cells
T5 chain: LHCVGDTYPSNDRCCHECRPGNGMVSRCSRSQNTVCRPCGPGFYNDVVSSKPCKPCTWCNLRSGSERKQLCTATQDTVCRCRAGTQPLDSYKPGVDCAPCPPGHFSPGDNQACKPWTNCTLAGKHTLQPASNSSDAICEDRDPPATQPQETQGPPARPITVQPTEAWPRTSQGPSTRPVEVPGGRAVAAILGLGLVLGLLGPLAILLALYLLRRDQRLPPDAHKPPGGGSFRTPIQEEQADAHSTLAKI
Method: Initially CD4+ T-cells were negatively selected by magnetic sorting from PBMC buffy coats extracted from whole blood. Following activation by anti-CD3/anti-CD28 antibodies conjugated to Dynabeads (Invitrogen), cell surface expression of OX40 was elevated on CD4 T-cells. […] After washing, cells were incubated for a further 15 minutes with anti-human IgG secondary antibodies before washing and fixing. The amount of antibody bound to each cell type was determined by flow cytometry.

[13] = biological target: T6, OX40 on OX40+ NFAT Jurkat cells (human, UniProt P43489); assay: cell-based or functional assay
T6 sequence (receptor, looked up): T5 chain

[14] = biological target: T1, L1 (DV1-GV4), soluble human Vδ1/Vγ4 γδ …; assay: SPR (Reichert 4SPR), antibody on Protein A chip, antigen flown over; remark: listed apart in the source
Method: (§3) Recombinant human Vδ1 heterodimer or human OX40 was flown over the cell at a top concentration of 100 nM.

Recombinant human OX40 = biological target: T7, Recombinant human OX40 (human, UniProt P43489 29-216, limits assumed); assay: as above
T7 construct: also called CD134
T7 sequence (looked up): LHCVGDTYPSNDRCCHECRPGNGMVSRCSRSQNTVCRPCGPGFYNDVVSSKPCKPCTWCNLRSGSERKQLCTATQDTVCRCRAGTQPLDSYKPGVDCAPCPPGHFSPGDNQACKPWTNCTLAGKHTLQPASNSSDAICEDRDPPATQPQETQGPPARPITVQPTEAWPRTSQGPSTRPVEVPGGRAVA
Method: as §3

[15] = biological target: T3, Vδ1 chain of the γδ TCR on human Vδ1 γδ …; assay: flow cytometry on Vδ1 γδ T-cells, anti-human IgG secondary antibody, % cells bound IgG; remark: listed apart in the source
Recombinant human MSLN = biological target: T8, Recombinant human MSLN (human, UniProt Q13421 296-580, limits assumed); assay: SPR (Reichert 4SPR), antibody on Protein A chip, antigen flown over; column head prints FAPα
T8 construct: also called mesothelin
Method: (§4) Recombinant human Vδ1 heterodimer or human MSLN was flown over the cell at a top concentration of 100 nM with the following parameters: 180 s association, 480 s dissociation, flowrate 25 μL/min, running buffer PBS+0.05% Tween 20. All experiments were performed at room temperature.

[16] = biological target: T3, Vδ1 chain of the γδ TCR on human Vδ1 γδ …; assay: flow cytometry on Vδ1 γδ T-cells, anti-human IgG secondary antibody, % IgG bound cells
Method: as §1

[17] = biological target: T1, L1 (DV1-GV4), soluble human Vδ1/Vγ4 γδ …; assay: SPR (Reichert 4SPR), antibody on Protein A chip, antigen flown over; remark: listed apart in the source
Method: as §4

[18] = biological target: T3, Vδ1 chain of the γδ TCR on human Vδ1 γδ …; assay: flow cytometry on Vδ1 γδ T-cells, anti-human Fc secondary antibody, % IgG bound cells
Method: (§5) After washing, cells were incubated for a further 15 minutes with anti-human Fc secondary antibodies before washing and fixing. The amount of antibody bound to each cell type was determined by flow cytometry.

Recombinant human FAPα = Recombinant human FAPα (human, UniProt Q12884 26-760); assay: SPR (Reichert 4SPR), antibody on Protein A chip, antigen flown over
Method: (§6) Recombinant human Vδ1 heterodimer or human FAPα was flown over the cell at a concentration of 100 nM with the following parameters: 180 s association, 480 s dissociation, flowrate 25 μL/min, running buffer PBS+0.05% Tween 20. All experiments were performed at room temperature.

[19] = biological target: T1, L1 (DV1-GV4), soluble human Vδ1/Vγ4 γδ …; assay: as above; remark: listed apart in the source
Method: as §6

[20] = biological target: T9, FAPα on FAPα+ fibroblasts (human, UniProt Q12884 1-760); assay: flow cytometry on BJ fibroblasts, anti-human Fc secondary antibody, % IgG bound cells
T9 construct: whole, on cells; also called FAPα+ target cells (BJ fibroblasts, human dermal fibroblasts)
Method: as §5

T1 sequence (main, as listed by the source): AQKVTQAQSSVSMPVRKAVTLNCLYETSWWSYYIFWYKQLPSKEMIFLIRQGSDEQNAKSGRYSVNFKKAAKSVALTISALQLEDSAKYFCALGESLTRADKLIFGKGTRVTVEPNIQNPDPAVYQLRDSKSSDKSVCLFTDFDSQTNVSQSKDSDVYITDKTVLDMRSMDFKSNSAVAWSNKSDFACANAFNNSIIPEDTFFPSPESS
T2 sequence (delta, as listed by the source limits assumed): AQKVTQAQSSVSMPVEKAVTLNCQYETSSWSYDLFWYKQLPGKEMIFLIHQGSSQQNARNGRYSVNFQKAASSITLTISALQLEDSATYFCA
T3 sequence (A0A1B0GX56 22-115, stated change not applied): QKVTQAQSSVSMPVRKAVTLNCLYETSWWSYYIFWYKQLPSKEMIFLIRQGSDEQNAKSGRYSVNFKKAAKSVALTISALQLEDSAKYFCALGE
T8 sequence (Q13421 other isoform, or with tags, fused parts or gaps limits assumed): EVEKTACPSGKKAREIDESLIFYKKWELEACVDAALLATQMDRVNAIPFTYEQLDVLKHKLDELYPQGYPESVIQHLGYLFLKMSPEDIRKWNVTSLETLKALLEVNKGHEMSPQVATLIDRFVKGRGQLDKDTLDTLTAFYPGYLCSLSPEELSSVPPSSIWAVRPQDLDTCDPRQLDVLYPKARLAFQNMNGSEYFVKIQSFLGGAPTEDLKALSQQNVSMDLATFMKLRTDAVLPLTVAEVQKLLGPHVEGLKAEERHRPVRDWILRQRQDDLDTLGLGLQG
T4 sequence (Q15116 25-167 limits assumed): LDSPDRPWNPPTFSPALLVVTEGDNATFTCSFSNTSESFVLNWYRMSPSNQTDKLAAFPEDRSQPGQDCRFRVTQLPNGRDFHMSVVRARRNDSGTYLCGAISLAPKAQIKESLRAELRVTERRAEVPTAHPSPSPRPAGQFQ
Chain of PD-1 on PD-1+ NFAT Jurkat cells (Promega, JA2191) (Q15116 25-288 limits assumed): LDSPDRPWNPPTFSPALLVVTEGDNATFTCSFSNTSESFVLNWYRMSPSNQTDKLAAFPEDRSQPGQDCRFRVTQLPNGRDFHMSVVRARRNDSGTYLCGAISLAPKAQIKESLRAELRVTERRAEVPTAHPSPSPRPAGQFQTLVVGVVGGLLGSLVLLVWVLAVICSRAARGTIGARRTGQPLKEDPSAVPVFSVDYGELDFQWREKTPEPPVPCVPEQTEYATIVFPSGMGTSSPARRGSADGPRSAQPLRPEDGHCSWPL

Kd [1]: 0.541 nM | ELISA signal (heat map) [2]: 42700 | ELISA signal (heat map) [3]: 139000 | Kd [4]: 15.1 nM
B1: ADT1-4-8 (antibody, V domains shown)
VH: EVQLQQSGPGLVKPSQTLSLTCAISGDSVSSKSAAWNWIRQSPSRGLEWLGRTYYRSKWSTDYAASVKSRITINPDTSKNQLSLQLNSVTPEDTAVYYCARTWVGYADVWGQGTLVTVSS
VL: DIQMTQSPPALSASVGDRVTITCRASQDINDWLAWYQHKPGKAPKLLIYDASSLESGVPLRFSGSGSGTEFTLTISSLQPDDFATYYCQQKYSAPQVTFGQGTRLEIK

Kd [5]: 61 nM | Kd [6]: 4 nM | fold reduction in affinity against ADT1-4-2 [7]: ~23 fold | fold reduction in affinity against ADT1-4-2 [8]: ~11 fold
B2: ADT1-4-2 (L74S) (antibody, V domains shown)
VH: B1 VH with A107V, V109R
VL: DIQMTQSPPALSASVGDRVTITCRASQDINDWLAWYQHKPGKAPKLLIYDASSLESGVPSRFSGSGSGTEFTLTISSLQPDDFATYYCQQKYSAPQVTFGQGTRLEIKR
notes: Captured on Protein A

EC50 (read off the curve) [9]: ~0.7 nM | Kd (Recombinant human PD-1): 0.9 nM | Kd [10]: 1.5 nM | EC50 (read off the curve), PD-1/PD-L1 blockade reporter assay [11]: ~1 nM
B3: Anti-Vδ1xAnti-PD-1 (ADT1-4-2xpembrolizumab) bispecific antibody (bispecific antibody, human IgG1, kappa)
light: EIVLTQSPATLSLSPGERATLSCRASKGVSTSGYSYLHWYQQKPGQAPRLLIYLASYLESGVPARFSGSGSGTDFTLTISSLEPEDFAVYYCQHSRDLPLTFGGGTKVEIKRTVAAPSVFIFPPSDEQLKSGTASVVCLLNNFYPREAKVQWKVDNALQSGNSQESVTEQDSKDSTYSLSSTLTLSKADYEKHKVYACEVTHQGLSSPVTKSFNRGEC
heavy: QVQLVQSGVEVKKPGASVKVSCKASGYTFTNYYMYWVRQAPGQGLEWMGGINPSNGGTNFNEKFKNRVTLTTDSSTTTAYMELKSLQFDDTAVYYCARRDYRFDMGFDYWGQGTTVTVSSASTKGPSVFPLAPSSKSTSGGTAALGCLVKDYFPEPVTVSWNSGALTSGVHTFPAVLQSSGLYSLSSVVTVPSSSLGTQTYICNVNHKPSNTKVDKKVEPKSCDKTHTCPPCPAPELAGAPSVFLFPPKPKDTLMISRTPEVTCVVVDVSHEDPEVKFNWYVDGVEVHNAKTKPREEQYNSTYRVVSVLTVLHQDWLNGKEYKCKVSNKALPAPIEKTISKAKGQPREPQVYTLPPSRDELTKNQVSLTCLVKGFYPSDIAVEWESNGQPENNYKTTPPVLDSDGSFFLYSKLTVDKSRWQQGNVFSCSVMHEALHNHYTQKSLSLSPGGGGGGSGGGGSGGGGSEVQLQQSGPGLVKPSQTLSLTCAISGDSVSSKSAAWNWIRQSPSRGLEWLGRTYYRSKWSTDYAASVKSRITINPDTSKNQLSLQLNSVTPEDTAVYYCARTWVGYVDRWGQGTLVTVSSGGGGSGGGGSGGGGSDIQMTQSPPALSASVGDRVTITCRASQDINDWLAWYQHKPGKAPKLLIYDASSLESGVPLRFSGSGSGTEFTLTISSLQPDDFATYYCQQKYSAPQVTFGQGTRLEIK
notes: also called PD-1xADT1-4-2; Vδ1-PD-1 bispecific antibody

EC50 (read off the curve) [12]: ~2 nM | EC50 (read off the curve), OX40+ NFAT Jurkat activation assay [13]: ~20 nM | Kd [14]: 1.2 nM | Kd (Recombinant human OX40): 1.63 nM | EC50 (read off the curve) [15]: ~0.3 nM
B4: Anti-Vδ1xanti-OX40 (ADT1-4-2xpogalizumab) bispecific antibody (bispecific antibody, human IgG1, kappa)
light: DIQMTQSPPALSASVGDRVTITCRASQDINDWLAWYQHKPGKAPKLLIYDASSLESGVPLRFSGSGSGTEFTLTISSLQPDDFATYYCQQKYSAPQVTFGQGTRLEIKRTVAAPSVFIFPPSDEQLKSGTASVVCLLNNFYPREAKVQWKVDNALQSGNSQESVTEQDSKDSTYSLSSTLTLSKADYEKHKVYACEVTHQGLSSPVTKSFNRGEC
heavy: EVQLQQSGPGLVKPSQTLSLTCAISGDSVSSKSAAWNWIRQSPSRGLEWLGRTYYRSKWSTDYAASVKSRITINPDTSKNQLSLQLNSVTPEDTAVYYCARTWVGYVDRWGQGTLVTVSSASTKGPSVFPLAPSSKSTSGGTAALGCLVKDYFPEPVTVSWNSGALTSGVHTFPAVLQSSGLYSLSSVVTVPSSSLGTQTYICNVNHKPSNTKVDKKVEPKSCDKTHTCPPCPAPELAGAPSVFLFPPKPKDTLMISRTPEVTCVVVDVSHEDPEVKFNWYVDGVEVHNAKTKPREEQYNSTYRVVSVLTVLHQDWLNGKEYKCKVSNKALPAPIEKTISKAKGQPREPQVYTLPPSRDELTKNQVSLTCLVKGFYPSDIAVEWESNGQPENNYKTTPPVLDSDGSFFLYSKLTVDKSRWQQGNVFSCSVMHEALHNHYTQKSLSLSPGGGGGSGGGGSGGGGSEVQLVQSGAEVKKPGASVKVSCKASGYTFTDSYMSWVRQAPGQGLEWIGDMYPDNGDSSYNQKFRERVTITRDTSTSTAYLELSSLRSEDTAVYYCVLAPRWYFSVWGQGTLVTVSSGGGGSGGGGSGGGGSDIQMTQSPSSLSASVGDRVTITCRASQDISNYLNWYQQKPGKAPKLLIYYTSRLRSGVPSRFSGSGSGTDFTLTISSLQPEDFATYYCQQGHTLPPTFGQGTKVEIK
notes: also called ADT1-4-2xOX40; Vδ1-OX40 bispecific antibody

Kd (Recombinant human MSLN): 0.87 nM | EC50 (read off the curve) [16]: ~0.5 nM | Kd [17]: 0.026 nM
B5: Anti-Vδ1xMSLN (ADT1-4-2xMSLN) bispecific antibody (bispecific antibody, human IgG1, kappa)
light: B4 light
heavy: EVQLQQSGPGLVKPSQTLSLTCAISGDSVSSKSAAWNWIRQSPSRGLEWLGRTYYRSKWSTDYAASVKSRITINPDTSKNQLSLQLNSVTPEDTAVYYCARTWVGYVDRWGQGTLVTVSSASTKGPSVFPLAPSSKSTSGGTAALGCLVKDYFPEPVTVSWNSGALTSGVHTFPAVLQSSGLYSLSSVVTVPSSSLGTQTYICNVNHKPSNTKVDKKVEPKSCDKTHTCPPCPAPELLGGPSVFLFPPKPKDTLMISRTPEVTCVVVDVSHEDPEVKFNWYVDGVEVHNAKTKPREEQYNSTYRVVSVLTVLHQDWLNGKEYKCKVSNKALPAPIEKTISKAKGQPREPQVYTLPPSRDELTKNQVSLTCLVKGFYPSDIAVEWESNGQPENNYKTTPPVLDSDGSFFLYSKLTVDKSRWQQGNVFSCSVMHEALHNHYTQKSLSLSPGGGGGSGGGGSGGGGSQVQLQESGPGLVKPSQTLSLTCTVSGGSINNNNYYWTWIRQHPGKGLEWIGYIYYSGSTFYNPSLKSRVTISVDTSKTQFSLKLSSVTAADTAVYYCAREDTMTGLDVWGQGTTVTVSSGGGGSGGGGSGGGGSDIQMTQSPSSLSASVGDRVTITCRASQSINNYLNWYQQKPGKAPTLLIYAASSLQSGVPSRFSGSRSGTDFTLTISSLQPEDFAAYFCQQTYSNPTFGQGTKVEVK
notes: also called ADT1-4-2 × MSLN; MSLN-Vδ1 bispecific antibody

EC50 (read off the curve) [18]: ~0.5 nM | Kd (Recombinant human FAPα): 1.4 nM | Kd [19]: 0.26 nM | EC50 (read off the curve) [20]: ~1 nM
B6: Anti-Vδ1xFAPα (ADT1-4-2x sibrotuzumab) bispecific antibody (bispecific antibody, human IgG1, kappa)
light: B4 light
heavy: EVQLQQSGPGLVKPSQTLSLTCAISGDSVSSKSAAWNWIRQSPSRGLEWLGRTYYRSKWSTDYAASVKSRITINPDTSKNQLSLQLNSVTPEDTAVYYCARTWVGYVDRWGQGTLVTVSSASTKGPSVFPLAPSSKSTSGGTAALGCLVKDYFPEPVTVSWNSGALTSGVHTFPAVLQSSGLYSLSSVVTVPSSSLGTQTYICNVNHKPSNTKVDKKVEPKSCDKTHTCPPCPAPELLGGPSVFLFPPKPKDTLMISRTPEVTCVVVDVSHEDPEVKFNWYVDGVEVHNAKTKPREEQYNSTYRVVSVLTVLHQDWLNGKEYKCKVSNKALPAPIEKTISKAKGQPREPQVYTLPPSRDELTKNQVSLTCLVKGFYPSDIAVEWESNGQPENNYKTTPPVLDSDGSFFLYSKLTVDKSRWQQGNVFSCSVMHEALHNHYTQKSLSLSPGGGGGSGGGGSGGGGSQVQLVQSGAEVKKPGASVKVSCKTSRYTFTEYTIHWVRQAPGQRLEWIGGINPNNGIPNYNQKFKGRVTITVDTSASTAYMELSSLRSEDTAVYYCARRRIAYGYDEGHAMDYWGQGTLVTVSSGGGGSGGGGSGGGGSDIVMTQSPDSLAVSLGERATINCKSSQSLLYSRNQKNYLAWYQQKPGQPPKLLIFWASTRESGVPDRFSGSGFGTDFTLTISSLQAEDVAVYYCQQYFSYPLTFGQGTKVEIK
notes: also called ADT1-4-2 × FAP alpha; Vδ1-FAPα bispecific antibody
